The values below come from patent US20160145334A1 (AbbVie / Abbott, published 2016).

The target in assay [1] is T1, rat NgR, full length, on cells (rat, UniProt Q99M75 27-447).
T1 construct: whole, on cells; also called CHO K1 Rat NGR; rat NgR expressed on HEK293f cells
T1 sequence (looked up): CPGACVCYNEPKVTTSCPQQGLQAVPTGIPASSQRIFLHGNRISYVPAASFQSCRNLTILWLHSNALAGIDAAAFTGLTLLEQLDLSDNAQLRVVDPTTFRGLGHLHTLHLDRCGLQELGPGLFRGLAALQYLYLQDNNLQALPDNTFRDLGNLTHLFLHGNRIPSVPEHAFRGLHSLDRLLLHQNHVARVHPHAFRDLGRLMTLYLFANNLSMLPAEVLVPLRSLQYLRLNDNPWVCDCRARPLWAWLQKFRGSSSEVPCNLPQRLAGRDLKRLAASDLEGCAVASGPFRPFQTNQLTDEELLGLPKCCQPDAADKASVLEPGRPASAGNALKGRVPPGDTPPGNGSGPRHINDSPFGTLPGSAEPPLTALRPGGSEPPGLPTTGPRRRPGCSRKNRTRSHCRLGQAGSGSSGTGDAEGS
In words: FACS on HEK293f cells with rat NgR, AP-Nogo66 40 nM, Alexa Fluor-labelled anti-alkaline phosphatase antibody. The protocol:
(§1) To further characterize the binding and competitive properties of mAbs produced as described in Example 1, a suspension of HEK293f cells transiently expressing human or rat NgR was used. 48 h after transfection the cells were plated in 96-well microtiter plates (Nunc Maxisorb) and washed with Phosphate buffered saline buffer (PBS containing 1% BSA). 1 μg/200 μl of AP-Nogo66 (final concentration 40 nM) and varying concentrations of monoclonal antibodies (20 μg, 4, 0.8 and 0.16 μg/200 μl) were added and incubated for 1 h at 4° C. A monoclonal antibody with the same isotype was used as a negative control. The binding of AP-Nogo66 was detected with an anti-alkaline Phosphatase antibody (Sigma), which was labeled with Alexa Fluor using the Zenon mouse IgG2a labeling kit (Invitrogen). The secondary antibody was incubated for 1 h at 4° C. At the end of the incubation, the cells were washed with PBS and subjected to FACS analysis. At the 20 μg/200 μl concentration (20 fold molar excess) polyclonal anti-NgR antibody and the NgR-Fc (both from R&D Systems) blocked the AP-Nogo66 binding between 60% and 70%, while mAb 50 and 51 blocked the AP-Nogo66 binding by approximately 90%. […] The AP-Nogo66 fluorescence is shifted to lower intensities (shaded; green area) in the presence of both antibodies in HEK293f cells expressing human and rat NgR.

Assay [2] concerns the target T2, human NgR, full length, on cells (human, UniProt Q9BZR6 27-447).
T2 construct: whole, on cells; also called HEK293 NGR; human NgR expressed on HEK293f cells
T2 sequence (looked up): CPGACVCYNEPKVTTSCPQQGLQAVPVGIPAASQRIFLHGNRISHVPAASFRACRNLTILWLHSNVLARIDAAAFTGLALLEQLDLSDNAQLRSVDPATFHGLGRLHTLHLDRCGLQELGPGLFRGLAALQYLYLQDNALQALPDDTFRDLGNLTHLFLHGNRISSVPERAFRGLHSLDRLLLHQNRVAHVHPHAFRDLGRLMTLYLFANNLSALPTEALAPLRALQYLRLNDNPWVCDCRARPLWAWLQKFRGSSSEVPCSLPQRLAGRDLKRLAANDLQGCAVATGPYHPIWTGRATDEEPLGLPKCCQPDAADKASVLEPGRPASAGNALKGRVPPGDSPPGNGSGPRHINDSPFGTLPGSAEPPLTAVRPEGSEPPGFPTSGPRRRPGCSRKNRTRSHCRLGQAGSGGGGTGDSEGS
In words: FACS on HEK293f cells with human NgR, AP-Nogo66 40 nM, Alexa Fluor-labelled anti-alkaline phosphatase antibody. The protocol:
as §1

Assay [3] deals with T3, recombinant Rat MAG/Fc Chimera (R&D Systems, Catalog #538-MG) (rat, UniProt P07722 20-516).
T3 construct: Bought; labeled with horseradish peroxidase by the Zenon human IgG labeling kit in the assay; Fc part of the bought chimera not given; not described
T3 sequence (looked up): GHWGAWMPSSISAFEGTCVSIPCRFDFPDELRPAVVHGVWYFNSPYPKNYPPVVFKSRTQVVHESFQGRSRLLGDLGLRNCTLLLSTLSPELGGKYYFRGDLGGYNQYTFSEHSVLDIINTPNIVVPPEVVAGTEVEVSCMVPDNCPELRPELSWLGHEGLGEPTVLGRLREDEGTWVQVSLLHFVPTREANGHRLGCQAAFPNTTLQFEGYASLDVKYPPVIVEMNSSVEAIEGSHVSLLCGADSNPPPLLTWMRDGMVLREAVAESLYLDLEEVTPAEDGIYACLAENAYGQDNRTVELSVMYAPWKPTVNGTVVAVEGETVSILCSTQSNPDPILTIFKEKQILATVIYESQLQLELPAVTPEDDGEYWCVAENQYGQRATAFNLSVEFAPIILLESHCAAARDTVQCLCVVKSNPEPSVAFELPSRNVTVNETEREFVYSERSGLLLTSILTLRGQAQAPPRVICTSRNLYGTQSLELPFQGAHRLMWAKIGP
As to the kind of experiment: competition ELISA, human NgR-Fc coated 0.2 µg/well, HRP-labelled MAG-Fc at 50 ng/ml, competitor unlabelled MAG-Fc. On the procedure: To further characterize the monoclonal antibodies a competition assay similar to the binding assay of Example 2 was used to test the ability of two mAbs produced in Example 1 to inhibit MAG-Fc binding to human NgR-Fc. We immobilized NgR-Fc (0.2 μg/well, R&D Systems) on 96-well microtiter plates (Nunc Maxisorb) in 50 mM Na-carbonate buffer pH 9 over night at 4° C. followed by a 2 h blocking step with 2% BSA in Tris-HCL, pH 7.2 at room temperature. MAG-Fc (R&D Systems recombinant Rat MAG/Fc Chimera, Catalog #538-MG) was labeled with horseradish peroxidase by the Zenon human IgG labeling kit (Molecular Probes). The wells received a constant concentration of labeled MAG-Fc (final concentration 50 ng/ml in Tris-HCL, pH 7.2 with 0.1% BSA) and the indicated concentrations of mAb 50 and mAb 51. This was incubated for 60 min at room temperature and using unlabeled MAG-Fc and NgR-Fc as controls. During each incubation step plates were washed with washing buffer (10 mM Tris-HCl, pH 7.2 and 0.05% Tween 20). Labeled MAG-Fc was developed using 3,3′,5,5′-tetramethylbenzidine substrate (TMB, Pierce) under standard conditions. […] MAG-Fc and NgR-Fc competed for the binding of labeled MAG-Fc (closed circles) to human NgR-Fc (a fusion protein comprising amino acids Met 1 to Ser 447 of the human NgR and a human Fc fragment (R&D Systems); closed squares). […]

B1: AP-Nogo66 (ligand)
chain: DAAQPARRARRTYEAYVRSSGIIPVEEENPDFWNREAAEALGAAKKLQPAQTAAKNLIIFLGDGMGVSTVTAARILKGQKKDKLGPEIPLAMDRFPYVALSKTYNVDKHVPDSGATATAYLCGVKGNFQTIGLSAAARFNQCNTTRGNEVISVMNRAKKAGKSVGVVTTTRVQHASPAGTYAHTVNRNWYSDADVPASARQEGCQDIATQLISNMDIDVILGGGRKYMFRMGTPDPEYPDDYSQGGTRLDGKNLVQEWLAKRQGARYVWNRTELMQASLDPSVTHLMGLFEPGDMKYEIHRDSTLDPSLMEMTEAALRLLSRNPRGFFLFVEGGRIDHGHHESRAYRALTETIMFDDAIERAGQLTSEEDTLSLVTADHSHVFSFGGYPLRGSSIFGLAPGKARDRKAYTVLLYGNGPGYVLKDGARPDVTESESGSPEYRQQSAVPLDEETHAGEDVAVFARGPQAHLVHGVQEQTFIAHVMAFAACLEPYTACDLAPPAGTTDAAHPGYLEEALSLERIYKGVIQAIQKSDEGHPFRAYLESEVAISEELVQKYSNSALGHVNCTIKELRRLFLVDDLVDSLKSLEGPEQKLISEEDLNSAVDHHHHHH
notes: Nogo66 cloned into pAPTag5, made in HEK293 cells; also called Nogo66 fused to an alkaline phosphatase tag
Regarding B1, the binding result in assay [1] and in assay [2] was “binds” each time.

B2: human recombinant NgR/Fc chimera (R&D Systems, Cat. Number 1208-NG) (Fc fusion, UniProt Q9BZR6 27-447, looked up)
chain: CPGACVCYNEPKVTTSCPQQGLQAVPVGIPAASQRIFLHGNRISHVPAASFRACRNLTILWLHSNVLARIDAAAFTGLALLEQLDLSDNAQLRSVDPATFHGLGRLHTLHLDRCGLQELGPGLFRGLAALQYLYLQDNALQALPDDTFRDLGNLTHLFLHGNRISSVPERAFRGLHSLDRLLLHQNRVAHVHPHAFRDLGRLMTLYLFANNLSALPTEALAPLRALQYLRLNDNPWVCDCRARPLWAWLQKFRGSSSEVPCSLPQRLAGRDLKRLAANDLQGCAVATGPYHPIWTGRATDEEPLGLPKCCQPDAADKASVLEPGRPASAGNALKGRVPPGDSPPGNGSGPRHINDSPFGTLPGSAEPPLTAVRPEGSEPPGFPTSGPRRRPGCSRKNRTRSHCRLGQAGSGGGGTGDSEGS
notes: range 1-447; Bought from R&D Systems; also called hNgR-Fc; human NgR-Fc; not shown: human Fc fragment
Turning to B2, in assay [3], the binding result is given as “binds”.
